According to the supplement of paper PMC9170038:

Tested on: K4 kissing-loop RNA reporter
Test: apparent KD of K4 kissing-loop reporter; higher = weaker reporter binding
Settings: Eterna round: R107
Description: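 RNA-MaP round R107: designed RNA switches with theophylline, tryptophan, arginine or FMN aptamers are transcribed on-chip within common flanks. They are titrated with a labelled K4 kissing-loop RNA reporter in RNA-MaP buffer (100 mM Tris pH 7.5, 80 mM KCl, 4 mM MgCl2), without ligand or with the indicated ligand. Median apparent KD per design.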

[1] = input ligand: theophylline 20 uM
[2] = input ligand: tryptophan 2.4 mM
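Note: bound reporter read as fluorescence of individual clusters on recovered sequencing chips by microscopy, with normalized cluster intensities fitted with a binding model.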

| Sequence | apparent KD of K4 kissing-loop reporter (input ligand: FMN 200 uM) | apparent KD of K4 kissing-loop reporter (input ligand: arginine 13.2 mM) | apparent KD of K4 kissing-loop reporter (input ligand: none) | apparent KD of K4 kissing-loop reporter [1] | apparent KD of K4 kissing-loop reporter [2] |
| --- | --- | --- | --- | --- | --- |
| CAUCUCAUGAAAUGAGAUGUCAUCAGUGAAGGAGCGCUAUUAGCAGCAGGUAGGUCGCACUGAAGCGGAGUGAUGUUCUGUAUGA [Arg A SS t3] | 170 nM | 220 nM | 293 nM | 214 nM | 150 nM |
| CAUGCCAUGAUCCUCCUGGUAUCUCCUGAUACCAGCGUGCUGACACGCCCUUGGCAGCAGGAGUCGAGAGUGAUGUUGUCGAGAA [KL-SSTheo-A9 #analogue] | 568 nM | 174 nM | 184 nM | 373 nM | 328 nM |
| CAUGGAGUGAUGCUCCAUGAUCGGGCUUGGCAGGAUAUGGGAUUUUCCAGAAGGGUCGAUCCCAGCGAGUGAUGUUCGCUGGUCU [Exclusion FMN A GF 26] | 106 nM | 121 nM | 126 nM | 151 nM | 116 nM |
| CCAGAAUAAUGAAGAUGAUAAAUUACUGAAGGAGCGCAUAUAGUUGCAGGUAGGUCGCGGUGAAUAAGUAUAGUGAUGUUAUACC [SSArgA.Ad] | 261 nM | 209 nM | 256 nM | 260 nM | 255 nM |
| CCAGCAAAGCUGGUCGCCAAACAACGGGCACGAGGACCGGUACGGCCGCCACUCGUGAGGACGAGUGAUGUUCGUUCACGGGCGA | 815 nM | 587 nM | 1690 nM | 602 nM | 302 nM |
| CCAGCGGGCACGGCCGCCACUCUCUCGAGUGAUGUUUGCGGAGUCAGGCCGGCUCAGUACGUCACGAGGACCGGGUGCAAUUUAC [theeternabot_exclusion_KL_Trp_B_40] | 986 nM | 425 nM | 829 nM | 506 nM | 460 nM |
| CCAGGACGAUGAGGAUGAUGAAUUACUGAAGGAGCGCAUAUGGUUGCAGGUAGGUCGCGGUGAACAAGUAUAGUGAUGUUAUGCC [SSArgA.V] | 704 nM | 424 nM | 693 nM | 519 nM | 631 nM |
| CCAGGAUGAUGAGGAUGAUAAAUUACUGAAGGAGCGCAUAUGGUUGCAGGUAGGUCGCGGUGAAUAAGUAUAGUGAUGUUAUGCC [SSArgA.Y] | 970 nM | 612 nM | 561 nM | 801 nM | 761 nM |
| CCAUCGCUAUUCGAUACCAGUCAGGAGGUCUUUGGCCUCCUAAUGGAGUGAUGUUCCUUAGACCCUUGGCAGCGAAUAGUGAUGG [Theophylline B K4 14] | 630 nM | 171 nM | 405 nM | 448 nM | 249 nM |
| CCAUUCAGUUACGAUACCAGUCUAAUAUAUUUGAUCAAAACCCUCGCCGAGUGAUGUUCGGACCCUUGGCAGCGUCUGGGACAGG [xxcetmullin] | 481 nM | 399 nM | 421 nM | 379 nM | 344 nM |
| CCAUUCUUUUACGAUACCAGUCUAAUAUAUUUAAUCAAAACCCUCGCCGAGUGAUGUUCGGACCCUUGGCAGCGUCUGCGAGAGG [ettyxtkmullin] | 606 nM | 472 nM | 758 nM | 603 nM | 495 nM |
| CCCGCGUCGUUAGUGAUGUUGACUUCUGAUACCAGUCGCAGGUAGGACCCUUGGCAGCAGCAGUUUUGUUAUAUGUAGGAUCCAG [theeternabot_exclusion_KL_Theo_A_36] | 727 nM | 201 nM | 717 nM | 445 nM | 490 nM |
| CCCGUACCAGUGAUGUUGGUAUGGUCUGAUACCAGUCUGUAGUCGGGCCCUUGGCAGCAGACCCUUGCCAAGGUGACGACUCCGG [Qu] | 128 nM | 146 nM | 126 nM | 131 nM | 132 nM |
| CCCGUGGGUUUGAGAGGGCUUGUGGGAAGUAAGGAUAUUUAGGGAGAAAGAAGGUACUAUAGAAUAUAGUGAUGUUAUAUAUGGG [#06 K4 FMN A Same State] | 238 nM | 218 nM | 232 nM | 126 nM | 170 nM |
| CCCUCACGAGUGAUGUUCGUAGGGUACAGUCAGGAUAUCAUGCGGUUGAGAAGGGACAGGAAGGGCGGCGGCGGGUUGCUCACCG [Atera] | 154 nM | 163 nM | 192 nM | 204 nM | 150 nM |
| CCGGGCGGCCGAAGGAGCGGGCGGACCCGAGUGAUGUUCGGGUGGACCGUGAGGUCCGGUGCCCAGGUAGGUCGCGGUUCCGUCC [#2 Same State - Arginine B Attempt #6 (HarryS)] | 200 nM | 101 nM | 159 nM | 97.5 nM | 121 nM |
